Target: MERS-CoV main protease (M^pro), wild type, authentic N-terminus (MERS-CoV)
Experiment: AUC

Chain of MERS-CoV main protease (M^pro), wild type, authentic N-terminus (enzyme) (K9N638 3248-3553 limits assumed): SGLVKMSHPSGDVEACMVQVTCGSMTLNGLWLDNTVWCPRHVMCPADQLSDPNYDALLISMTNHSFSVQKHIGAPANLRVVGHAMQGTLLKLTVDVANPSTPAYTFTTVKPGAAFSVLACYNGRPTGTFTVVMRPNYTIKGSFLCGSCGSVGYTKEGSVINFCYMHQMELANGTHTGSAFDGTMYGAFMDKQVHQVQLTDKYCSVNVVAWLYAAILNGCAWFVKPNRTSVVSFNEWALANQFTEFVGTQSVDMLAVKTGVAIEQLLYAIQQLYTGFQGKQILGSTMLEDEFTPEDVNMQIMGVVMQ

Substance “MERS-CoV main protease (M^pro), wild type, authentic N-terminus (enzyme)” has a percent dimer of 70%.
